{"source": "patent US20220404334A1", "about": "“BIOCHIP HAVING MICROCHANNEL PROVIDED WITH CAPTURING AGENT FOR PERFORMING CYTOLOGICAL ANALYSIS” (CASE WESTERN RESERVE UNIVERSITY, priority 2019, published 2022)", "molecules": {"B1": {"name": "Crizanlizumab: humanized monoclonal antibody against P-selectin (antibody, chains of the INN, looked up, V domains shown)", "VH": "QVQLVQSGAEVKKPGASVKVSCKVSGYTFTSYDINWVRQAPGKGLEWMGWIYPGDGSIKYNEKFKGRVTMTVDKSTDTAYMELSSLRSEDTAVYYCARRGEYGNYEGAMDYWGQGTLVTVSS", "VL": "DIQMTQSPSSLSASVGDRVTITCKASQSVDYDGHSYMNWYQQKPGKAPKLLIYAASNLESGVPSRFSGSGSGTDFTLTISSLQPEDFATYYCQQSDENPLTFGGGTKVEIK"}}, "key": {"[1]": {"test_system": "heme-activated endothelial cells (HUVECs and HPMECs)", "experiment": "Endothelium-on-a-chip: sickle RBC adhesion to heme-activated endothelial cells under hypoxia", "assay_type": "cell-based, human", "conditions": "5 μM, N=13 subjects", "protocol": "The assembled microchannels are rinsed serially with PBS, 100% ethanol, and GMBS following a 20-minute incubation. Thereafter, another washing step is performed using 100% ethanol and PBS before loading the microchannels with a fibronectin solution at a concentration of 0.2 mg/mL. Fibronectin-loaded microchannels are incubated at 37° C. for 1 hour for complete protein immobilization on the GMBS-functionalized surface. To prepare the endothelialized microchannels, human endothelial cells are seeded into fibronectin-coated microchannels at a density of 4×10^6 cells/mL and incubated for 2 hours at 37° C. and 5% CO2 to allow cell attachment and spreading, while replacing the culture medium in the microchannels every hour.\nThe activating agents (e.g., heme or TNF-α) are then injected into the microchannels in a serum-free medium and incubated for a pre-determined period for activation to take place. Before using the activated endothelial cells, the microfluidic channels are rinsed for at least 2 times with serum-free medium.\nWhen using blood samples collected in Ethylenediaminetetraacetic acid (EDTA) containing vacutainers, the blood samples are first centrifuged and washed three times with PBS to isolate blood cells from plasma. When in contact with adherent endothelial cells, EDTA will induce cell detachment by inhibiting Ca^2+ ions that are necessary for cell adhesion through integrins. […]"}, "Recombinant human ICAM-1": {"target": "Recombinant human ICAM-1 (Homo sapiens, UniProt P05362)", "sequence (P05362 28-532)": "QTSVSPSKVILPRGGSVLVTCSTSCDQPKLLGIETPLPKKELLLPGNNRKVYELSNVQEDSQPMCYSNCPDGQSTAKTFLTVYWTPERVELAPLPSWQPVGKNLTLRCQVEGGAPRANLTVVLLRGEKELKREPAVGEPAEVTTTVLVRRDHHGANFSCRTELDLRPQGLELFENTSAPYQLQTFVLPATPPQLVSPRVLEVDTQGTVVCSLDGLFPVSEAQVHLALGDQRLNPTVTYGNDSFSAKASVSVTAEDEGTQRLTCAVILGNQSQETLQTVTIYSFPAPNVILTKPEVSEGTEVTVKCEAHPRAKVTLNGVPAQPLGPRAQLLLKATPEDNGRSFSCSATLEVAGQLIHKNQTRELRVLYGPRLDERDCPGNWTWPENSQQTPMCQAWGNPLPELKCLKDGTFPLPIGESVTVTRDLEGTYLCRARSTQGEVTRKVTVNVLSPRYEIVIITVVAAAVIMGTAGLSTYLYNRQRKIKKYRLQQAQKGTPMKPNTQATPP", "experiment": "Microfluidic flow adhesion of HbSS RBCs to immobilized ICAM-1, inhibition experiments", "assay_type": "cell-based", "protocol": "ICAM-1 functionalized microchannels of the microfluidic device were connected to blood-containing syringes through 40-cm inlet tubing. A total of […] of whole blood sample was perfused into the microchannels at an approximate shear stress of 1 dyne/cm^2, corresponding to the typical shear stress observed in postcapillary venules, via a constant displacement syringe pump (New Era NE-300; New Era Pump Systems, Farmingdale, N.Y.). To remove the nonadherent cells, another syringe filled with wash buffer (1% bovine serum albumin and 0.09% sodium azide in 13 phosphate buffered saline [PBS]) was connected to the microchannels, and the buffer solution was injected at […], corresponding to a wall shear stress of 1 dyne/cm^2, until all nonadherent cells had been cleared. Phase-contrast images of the microchannel surface were obtained using an inverted microscope at 203. Quantification of ICAM-1-adherent RBCs was performed manually using Adobe Photo-shop CS5 (Adobe, San Jose, Calif.) within a rectangular field of view (fov) with a surface area of 32 mm^2.\nFor the inhibition studies, whole HbSS blood samples were mixed with a monoclonal mouse antibody against human α4β1 or LFA-1 at a final antibody concentration of […] and incubated at 37° C. for 1 hour prior to the adhesion experiments. As a control, samples were treated with the same concentration of isotype-control mouse immunoglobulin G1 for the same duration. Anti-human LFA-1 antibody and the isotype-control mouse immunoglobulin G were from BioLegend (San Diego, Calif.). Anti-human α4β1 antibody was purchased from Abcam (Cambridge, Mass.). To block the β2-associated adhesion pathways, a recombinant human β2 protein solution (Novus Biologicals, Centennial, Colo.) was perfused into ICAM-1-functionalized microchannels and incubated for 1 hour at 37° C. Before starting the adhesion experiments, the microchannels were rinsed 3 times with PBS. Similarly, to test the inhibitory effect of fibrinogen (Enzo Life Sciences, Farmingdale, N.Y.) or low molecular weight heparin (LMWH; AMSBIO, Cambridge, Mass.), ICAM-1-functionalized microchannels were injected with fibrinogen (range, 1-20 mg/mL) or LMWH (range, 0.1-5 mg/mL). After an hour at 37° C., the microchannels were rinsed with PBS 3 times, and adhesion was assessed as above.\nMinitab 19 (Minitab, State College, Pa.) was used to analyze the results. A normality test was performed to determine whether the variables were normally distributed. Because of the largely non-normally distributed variables, Mann-Whitney U tests were used to compare 2 groups, and Kruskal-Wallis tests with Dunn's correction were used to compare multiple groups, unless stated otherwise. K-means clustering analysis was performed to identify distinct subject subpopulations based on hemolysis biomarkers. Through-out this article, the error bars represent±standard error of the mean (SEM). P<0.05 was considered statistically significant."}, "P-selectin [2]": {"target": "T1, P-selectin (Homo sapiens, UniProt P16109)", "T1 sequence (P16109 42-830)": "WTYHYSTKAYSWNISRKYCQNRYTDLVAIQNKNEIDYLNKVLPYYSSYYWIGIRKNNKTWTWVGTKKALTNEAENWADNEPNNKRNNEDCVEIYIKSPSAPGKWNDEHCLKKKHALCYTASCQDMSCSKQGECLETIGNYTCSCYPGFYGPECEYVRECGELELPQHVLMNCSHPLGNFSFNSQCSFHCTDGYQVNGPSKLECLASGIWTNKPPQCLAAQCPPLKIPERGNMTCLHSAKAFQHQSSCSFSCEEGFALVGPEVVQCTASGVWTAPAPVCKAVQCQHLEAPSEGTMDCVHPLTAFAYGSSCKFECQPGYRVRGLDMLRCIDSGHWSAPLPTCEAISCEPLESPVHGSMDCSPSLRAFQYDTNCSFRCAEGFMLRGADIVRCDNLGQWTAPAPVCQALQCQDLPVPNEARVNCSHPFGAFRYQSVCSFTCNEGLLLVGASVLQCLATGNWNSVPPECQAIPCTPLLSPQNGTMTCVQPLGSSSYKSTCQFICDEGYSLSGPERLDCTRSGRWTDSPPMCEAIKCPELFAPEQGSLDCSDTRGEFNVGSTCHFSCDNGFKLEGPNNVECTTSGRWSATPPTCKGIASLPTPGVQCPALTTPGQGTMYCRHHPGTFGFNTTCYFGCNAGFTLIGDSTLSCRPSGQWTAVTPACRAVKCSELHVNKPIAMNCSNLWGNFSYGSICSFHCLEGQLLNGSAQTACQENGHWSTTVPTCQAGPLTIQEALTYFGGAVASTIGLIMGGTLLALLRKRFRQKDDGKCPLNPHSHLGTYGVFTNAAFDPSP", "experiment": "Microfluidic whole blood assay of leukocyte adhesion to immobilized P-selectin, microchannels pre-treated with drug (inhibition experiments)", "assay_type": "cell-based", "protocol": "(§1) Microfluidic devices were fabricated using a lamination technique. Each microfluidic device contained 3 identical microchannels with a height of 50 μm (FIG. 6A), which were designed to recapitulate volume and flow of post-capillary venules. The microchannels were functionalized with recombinant human P-selectin (25 μg/mL) and blocked with 2% bovine serum albumin (BSA) to pre-vent non-specific adhesion. After tubing assembly, whole blood samples were mixed with Hanks' buffer modified with calcium and magnesium (1:1 v/v), and 15 μL of the diluted whole blood was injected into the microchannels using New Era NE-300 syringe pump system (Farming-dale, N.Y.) at an approximate shear rate of 1 dyne/cm^2. Non-adherent cells were rinsed out by flowing Hanks' buffer. Phase-contrast images of the microchannels with adherent leukocytes were recorded at 10× with an inverted microscope (Olympus IX83) and a camera (EXi Blue EXI-BLU-RF-M-14-C), and adherent leukocytes were manually quantified with Adobe Photoshop software (San Jose, Calif.) in a 32 mm^2 area.\nCrizanlizumab (ADAKVEO®, SEG101) stock solution (10 mg/mL) was donated by Novartis (Basel, Switzerland). For the inhibition experiments, P-selectin immobilized-microchannels were pre-treated with Hanks buffer as vehicle control, or Crizanlizumab with graded concentrations of 1, 10, 100 μg/mL, or 1 mg/mL at 37° C. for 30 min. There-after, the adhesion assay was performed. Human IgG2 (Sigma Aldrich, St. Louis, Mo.), at 100 μg/mL, was included as the isotype control for Crizanlizumab. For the detachment experiments, modified microchannels with individual inlets for separately injecting blood and drug-containing buffer were designed to allow transition from washing buffer to Crizanlizumab during rinsing. Two synchronous pumps connected to these inlets were programmed such that Crizanlizumab at 10 μg/mL was injected into microchannels after Hanks buffer without a disruption in shear rate. The programmed flow rates of the two synchronous pumps over the course of the experiment are shown in FIG. 7A, which insured a constant shear rate in the microchannels. Cell behaviors were also continuously recorded. Phase contrast images of the adherent leukocytes were collected during Hanks's buffer rinse and Crizanlizumab flow for comparison.\nLeukocyte adhesion data were reported as mean±standard error of the mean (SEM). Clinical variables of the study population were re-ported as mean±standard deviation (SD). Statistical analyses were per-formed with Minitab (Minitab Inc., State College, Pa.). A test for normality was initially performed on relevant variables. A paired t-test was per-formed to compare paired groups before and after Crizanlizumab treatment. Statistical significance was determined based on a p-value<0.05 (p<0.05)."}, "P-selectin [3]": {"target": "T1, P-selectin", "set-up": "host or cells: patients with SCD (endogenous protein in vivo)", "conditions": "infused monthly, patients with SCD; cited from earlier work"}, "P-selectin [4]": {"target": "T1, P-selectin", "experiment": "Detachment experiments: drug flowed over leukocytes already adherent to immobilized P-selectin", "assay_type": "cell-based", "protocol": "as §1\nCrizanlizumab (ADAKVEO®, SEG101) stock solution (10 mg/mL) was donated by Novartis (Basel, Switzerland). For the inhibition experiments, P-selectin immobilized-microchannels were pre-treated with Hanks buffer as vehicle control, or Crizanlizumab with graded concentrations of 1, 10, 100 μg/mL, or 1 mg/mL at 37° C. for 30 min. There-after, the adhesion assay was performed. Human IgG2 (Sigma Aldrich, St. Louis, Mo.), at 100 μg/mL, was included as the isotype control for Crizanlizumab. For the detachment experiments, modified microchannels with individual inlets for separately injecting blood and drug-containing buffer were designed to allow transition from washing buffer to Crizanlizumab during rinsing. […] Cell behaviors were also continuously recorded. […]\nLeukocyte adhesion data were reported as mean±standard error of the mean (SEM). […] Statistical significance was determined based on a p-value<0.05 (p<0.05)."}, "[5]": {"conditions": "pre-treatment 1 μg/mL, HbSS on-transfusion samples, N=8"}, "[6]": {"conditions": "pre-treatment 10 μg/mL, HbSS on-transfusion samples, N=8"}, "[7]": {"conditions": "pre-treatment 1 mg/mL, HbSS on-transfusion samples, N=8"}}}
{"molecule": "Cc1ccc(NC(=O)c2ccc(CN3CCN(C)CC3)cc2)cc1Nc1nccc(-c2cccnc2)n1", "note": "[imatinib]", "values": [{"measurement": "Sickle RBC adhesion to heme-activated endothelial cells (mean adhesion±SEM)", "setting": "[1]", "value": "171±30"}]}
{"molecule": "fibrinogen", "values": [{"measurement": "Effect on RBC adhesion to ICAM-1", "setting": "Recombinant human ICAM-1; microchannels incubated with 1 mg/mL", "value": "did not inhibit RBC adhesion"}, {"measurement": "Adhesion blocked", "setting": "Recombinant human ICAM-1; microchannels incubated with 5 mg/mL", "value": "about 50%"}, {"measurement": "Effect on RBC adhesion to ICAM-1", "setting": "Recombinant human ICAM-1; microchannels treated with 1, 5, 10, 20 mg/mL, n=5", "value": "significantly decreased RBC adhesion in a concentration-dependent manner"}]}
{"molecule": "low molecular weight heparin [LMWH]", "values": [{"measurement": "Effect on RBC adhesion to ICAM-1", "setting": "Recombinant human ICAM-1; preincubation of microfluidic channels (not blood)", "value": "had no effect"}, {"measurement": "Inhibition of RBC adhesion to ICAM-1", "setting": "Recombinant human ICAM-1; pretreatment of blood samples at 0.1 mg/mL", "value": 0.80, "unit": "%"}, {"measurement": "Effect on RBC adhesion to ICAM-1", "setting": "Recombinant human ICAM-1; whole blood samples treated (1:1 v/v) at 0.1, 1, and 5 mg/mL", "value": "significantly blocked RBC adhesion to ICAM-1"}]}
{"molecule": "recombinant human β2 protein: recombinant human β2 protein solution (Novus Biologicals) to block β2-associated adhesion pathways", "values": [{"measurement": "Effect on HbSS RBC adhesion to immobilized ICAM-1", "setting": "Recombinant human ICAM-1; microchannels treated with protein 1 hour 37° C., 5 experiments", "value": "No significant reduction"}]}
{"molecule": "B1", "values": [{"measurement": "Leukocyte adhesion (adherent leukocytes, mean±SEM)", "setting": "P-selectin [2]; isotype control comparison, 100 μg/mL, N=3", "value": "596±221"}, {"measurement": "Leukocyte adhesion (adherent leukocytes, mean±SEM)", "setting": "P-selectin [2]; [5]", "value": "1535±258"}, {"measurement": "Leukocyte adhesion, range", "setting": "P-selectin [2]; [5]", "value": "257-2732"}, {"measurement": "Leukocyte adhesion (adherent leukocytes, mean±SEM)", "setting": "P-selectin [2]; [6]", "value": "1057±325"}, {"measurement": "Leukocyte adhesion, range", "setting": "P-selectin [2]; [6]", "value": "195-2948"}, {"measurement": "Leukocyte adhesion (adherent leukocytes, mean±SEM)", "setting": "P-selectin [2]; pre-treatment 100 μg/mL, 37° C. 30 min, HbSS on-transfusion samples, N=8, 32 mm^2 area, 1 dyne/cm^2", "value": "703±161"}, {"measurement": "Leukocyte adhesion, range", "setting": "P-selectin [2]; pre-treatment 100 μg/mL, HbSS on-transfusion samples, N=8", "value": "131-1474"}, {"measurement": "Leukocyte adhesion (adherent leukocytes, mean±SEM)", "setting": "P-selectin [2]; [7]", "value": "587±168"}, {"measurement": "Leukocyte adhesion, range", "setting": "P-selectin [2]; [7]", "value": "81-1403"}, {"measurement": "Leukocyte adhesion (adherent leukocytes, mean±SEM)", "setting": "P-selectin [2]; pre-treatment 1 mg/mL, non-transfusion individuals (on-hydroxyurea or supportive care), N=8", "value": "179±79"}, {"measurement": "Leukocyte adhesion, range", "setting": "P-selectin [2]; pre-treatment 1 mg/mL, non-transfusion individuals, N=8", "value": "39-691"}, {"measurement": "Annual rate of VOC", "setting": "P-selectin [3]", "value": "reduced the annual rate of VOC"}, {"measurement": "Effect of post-treatment on adherent leukocytes", "setting": "P-selectin [4]; post-treatment 10 μg/mL after leukocytes adhered", "value": "detachment of rolling leukocytes whereas firmly attached cells remained adherent"}, {"measurement": "Leukocyte adhesion after introducing drug, range", "setting": "P-selectin [4]; post-treatment 10 μg/mL, N=6", "value": "58-2388"}, {"measurement": "Leukocyte adhesion after introducing drug into the microchannels (mean±SEM)", "setting": "P-selectin [4]; post-treatment 10 μg/mL, N=6 (4 on-transfusion)", "value": "719±354"}]}
